T1: MCSF (Homo sapiens, UniProt P09603)
T1 sequence (P09603 33-255 limits assumed): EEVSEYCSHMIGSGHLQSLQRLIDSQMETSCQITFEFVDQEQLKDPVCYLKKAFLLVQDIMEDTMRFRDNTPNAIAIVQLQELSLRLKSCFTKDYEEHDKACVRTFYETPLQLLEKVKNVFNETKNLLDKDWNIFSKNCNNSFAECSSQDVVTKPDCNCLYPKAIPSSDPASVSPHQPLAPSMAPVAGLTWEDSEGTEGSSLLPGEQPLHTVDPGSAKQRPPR


Assays:
MCSF [1] = molecular target: T1, MCSF; assay: M-NFS-60 proliferation assay, neutralizing activity (Example 14); format: cell-based; settings: Table 12; relative IC50, M-NFS-60 proliferation, 10 ng/ml M-CSF, 72 hours
Description: To test the neutralizing activity of M-CSF antibodies, a proliferation assay of M-NFS-60 cell line was used (American Type Culture Collection, Accession No. CRL-1838, available from ATCC in Rockville, Md., USA, derived from a myologenous leukemia induced with the Cas-Br.MuLV wild mouse ecotropic retrovirus. The cell line responds to both interleukin 3 and M-CSF and contains a truncated c-myb proto-oncogene caused by the integration of a retrovirus). Proliferation of M-NFS-60 requires active M-CSF in a dose-dependent fashion. In the assay, M-NFS-60 cells were washed and plated in RPIM1640 medium with 10% FBS and 1% Pen/Strep. […] Cells were incubated at 37° C. under 5% CO2 for 72 hours before cell numbers were quantified by CellTiter Glo assay (Promega). […] The IC50 of each antibody was analyzed by curve fit.
The assay was repeated using human MCSF in serum, MDA231 conditioned medium (which contains M-CSF), cynomologous monkey MCSF in serum, and cynomologous monkey recombinant MCSF. The results are presented in FIGS. 25 (recombinant MCSF), 26 (human MCSF in serum) and 27 (MDA231 conditioned medium) as the fluorescent reading from CellTiter Glo assay, which is linear with cell number. […]

MCSF [2] = molecular target: T1, MCSF; assay: Biacore analysis, antibody captured on anti-mouse Fc chip, MCSF flowed over; format: binding; settings: Table 8, 25° C., 1:1 interaction model
Description: Binding properties of the aforementioned antibodies were analyzed using Biacore analyses. […] The aforementioned antibodies were then captured on the anti-mouse Fc/CM5 biosensor chip at 1.5 μg/ml for 3 min at 2 μl/min. MCSF was flowed over the modified biosensor surface at varying concentrations (Rmax ˜15). Test antibodies and antigen were diluted in 0.01 M HEPES pH 7.4, 0.15 M NaCL, 3 mM EDTA, 0.005% Surfactant P20 (HBS-EP). All experiments were performed at 25° C. Kinetic and affinity constants were determined using Biaevaluation software (Biacore) with a 1:1 interaction model/global fit.

MCSF [3] = molecular target: T1, MCSF; assay: Biacore analysis, M-CSF immobilized, intact Mab or Fab flowed over (Example 11); format: binding; settings: Table 9, 25° C., 1:1 interaction model
Description: Specifically, M-CSF was immobilized onto CMS biosensor chip via amine coupling. 0.05 μg/ml M-CSF in 10 mM Na Acetate pH 4.0 was injected at 1 μl/min for 5 minutes to achieve RL=6-12 RU. Test antibody (or Fab fragment) were flowed over the modified biosensor surface at varying concentrations. Test antibodies were diluted in 0.01 M HEPES pH 7.4, 0.15 M NaCL, 3 mM EDTA, 0.005% Surfactant P20 (HBS-EP) and all experiments were done at 25° C. Kinetic and affinity constants were determined using Biaevaluation software (Biacore) with a 1:1 interaction model/global fit.

MCSF [4] = molecular target: T1, MCSF; assay: Recognition of M-CSF under reducing and non-reducing conditions; format: binding; settings: 0.1 μg M-CSF
Description: Accordingly, the anti-M-CSF antibodies were tested against 0.1 μg M-CSF under reducing as well as non-reducing conditions.

IC50 Fold Loss (MCSF [1])	Ka (MCSF [2]) [M⁻¹ s⁻¹]	Kd (MCSF [2]) [s⁻¹]	Ka (MCSF [3]) [M⁻¹ s⁻¹]	Kd (MCSF [3]) [s⁻¹]	Molecule	Form of M-CSF recognized (MCSF [4])
No loss					heRX1-10.G4: Human Engineered RX1 construct 10 with IgG4 constant region; named only in Table 12 (antibody, left off: a dimerising Fc or GST) heavy: QVQLQESGPGLVKPSQTLSLTCTVSDYSITSDYAWNWIRQFPGKGLEWMGYISYSGSTSYNPSLKSRITISRDTSKNQFSLQLNSVTAADTAVYYCASFDYAHAMDYWGQGTTVTVSS light: DIVLTQSPAFLSVTPGEKVTFTCQASQSIGTSIHWYQQKTDQAPKLLIKYASESISGIPSRFSGSGSGTDFTLTISSVEAEDAADYYCQQINSWPTTFGGGTKLEIKRT	
	594000	0.00177	127000	0.00126	5H4: MCSF-specific murine antibody 5H4 (SEQ ID NOs: 10 and 11) (antibody, listed as Mus musculus) heavy: EIQLQQSGPELVKTGTSVKISCKASGYSFTGYFMHWVKQSHGKSLEWIGYISCYNGDTNYNQNFKGKATFTVDTSSSTAYMQFNSLTSEDSAVYYCAREGGNYPAYWGQGTLVTVSAAKTTPPSVYPLAPGSAAQTNSMVTLGCLVKGYFPEPVTVTWNSGSLSSGVHTFPAVLQSDLYTLSSSVTVPSSTWPSETVTCNVAHPASSTKVDKKIVPRDCGCKPCICTVPEVSSVFIFPPKPKDVLTITLTPKVTCVVVDISKDDPEVQFSWFVDDVEVHTAQTQPREEQFNSTFRSVSELPIMHQDWLNGKEFKCRVNSAAFPAPIEKTISKTKGRPKAPQVYTIPPPKEQMAKDKVSLTCMITDFFPEDITVEWQWNGQPAENYKNTQPIMDTDGSYFVYSKLNVQKSNWEAGNTFTCSVLHEGLHNHHTEKSLSHSPGK light: DIVMTQSHKFMSTSVGDRVTITCKASQNVGTAVTWYQQKPGQSPKLLIYWTSTRHAGVPDRFTGSGSGTDFTLTISDVQSEDLADYFCQQYSSYPLTFGAGTKLELKRADAAPTVSIFPPSSEQLTSGGASVVCFLNNFYPKDINVKWKIDGSERQNGVLNSWTDQDSKDSTYSMSSTLTLTKDEYERHNSYTCEATHKTSTSPIVKSFNRNEC	Only the non-reduced form of M-CSF was recognized
